Test results published in patent US12508311B2, “Fusion protein, and preparation method and use thereof” (SUN YAT-SEN UNIVERSITY, priority 2021, dated 2025).

Tests used:
[1] = biological target: T1, wild-type KRas protein in HT29 (KRas wt) cells (Homo sapiens, UniProt P01116); assay: Western blot of KRas degradation in HT29 cells; format: cell-based; conditions: for degradation of KRas protein, concentration-dependency (western blot): 0-20 μg/ml
T1 construct: host or cells: HT29
Procedure: • (1) Source and culture of cells: human colorectal cancer cells HT29 (KRas wt) and human colorectal cancer cells HCT116 (KRas G13D) came from American Type Culture Collection (ATCC) (item number: HTB-38, CCL-247). HT29 and HCT116 cells were all cultured in the 1640 culture medium added with 10% fetal bovine serum (FBS), under 5% CO2 at 37° C. • (2) The colorectal cancer cells HCT116 and HT29 were respectively spread in six-well plates, 500,000 cells per well. […] 2,000 μL of DMEM complete culture solution was added into each well and mixed evenly, and the cells were cultured at 37° C. for 24 hours. • (3) The cells were cleaned with PBS twice, and 0.5 mL of 0.25% pancreatin was added into each well to digest the cells and make the cells fall off from the culture dish wall. Then, the digestion was stopped with 1 mL of complete culture solution per well, the cell suspension was collected into a 1.5 mL EP tube, and centrifuged at the room temperature and 300 g for 3 minutes to collect the cells. The cells were resuspended with 1 mL of PBS, and repeatedly centrifuged for one time. • (4) The supernatant was removed, and 100 μL of lysate was added in each group (item number: P0013G; purchased from Beyotime Biotechnology Company). The cells were lysed on ice, vortically vibrated every 5 minutes, and centrifuged at 4° C. and 12,000 pm for 30 minutes after being lysed for 30 minutes, and the supernatant was collected into a new 1.5 mL EP tube. • (5) The protein concentration was measured by the BCA method, and 30 μg of protein was taken from each group for SDS denaturation gel electrophoresis, transferred and blocked with 5% skim milk for 1 hour. Then, KRas (source: Proteintech; item number: 12063-1-AP) and β-tublin (source: Proteintech; item number: 10094-1-AP) primary antibodies were added by a ratio of 1:2,000, and shaken overnight at 4° C. to remove the antibodies. The membrane was washed with TBST for three times, 10 minutes each time. The rabbit secondary antibody labeled with corresponding HRP (source: TransGen Company; item number: HS101-01) was added for dilution with the ratio of 1:3,000 and incubated in shaking at the room temperature for 1 hour, and the membrane was cleaned with TBST for three times, 10 minutes each time. The antibody was luminously developed in the dark room of the ELC luminescent kit. Concentrations of all the primary antibodies were 1:2,000 (1 […] diluted in 2,000 μL of primary antibody diluent).
The protein concentrations were measured by BCA, and 30 μg of protein was taken respectively and stored in a refrigerator at −20° C. for later use. • (3) Western blot experiment was carried out on collected protein samples.

[2] = Residence time in vivo (serum western blot); parameters: species or system mice
Procedure: • (1) Balb/c nude mice, female, 4 weeks to 5 weeks old, purchased from Guangdong Laboratory Animal Center and raised in Laboratory Animal Center of Sun Yat-sen University, were used in this experiment. […] The serum protein concentration was measured by the BCA method (as described above). 20 μg of serum protein was respectively taken for the WB experiment (as described above), and whole serum protein gel running and Coomassie brilliant blue staining. • (4) Experimental results were shown in FIG. 19.

[3] = system: signal pathway KRas/Raf/ERK/c-myc in KRas mutant-type cells HCT116; assay: Western blot of EGFR downstream signal pathway, HCT116; format: cell-based, human; conditions: 10 and 20 μg/mL, 24 hours, compared with control TKDm
Procedure: • (1) The colorectal cancer cells HCT116 (KRas G13D) and HT29 (KRas wt) were respectively spread in six-well plates, 500,000 cells per well. […] Then, the digestion was stopped with 1 mL of complete culture solution per well, the cell suspension was collected into a 1.5 mL EP tube, and centrifuged at the room temperature and 300 g for 3 minutes to collect cells. The cells were resuspended with 1 mL of PBS, and repeatedly centrifuged once. • (3) The supernatant was removed, 100 μL of lysate was added in each group (item number: P0013G; purchased from Beyotime Biotechnology Company). The cells were lysed on ice, vortically vibrated every 5 minutes, and centrifuged at 4° C. and 12,000 rpm for 30 minutes after being lysed for 30 minutes, and the supernatant was collected in a new 1.5 mL EP tube. • (4) The protein concentration was measured by the BCA method, and 20 μg of protein was taken from each group for SDS denaturation gel electrophoresis, transferred and blocked with 5% skim milk for 1 hour.

HT29 (KRas wt) = assay: CCK-8 cell proliferation experiment, HT29; conditions: 10 and 20 μg/mL, 24 hours
From the text: (§1) CCK-8 was a highly sensitive and non-radioactive colorimetric method for determining the number of living cells in the cell proliferation or toxicity test.

HCT116 (KRas G13D) = assay: CCK-8 cell proliferation experiment, HCT116; conditions: 10 and 20 μg/mL, 24 hours
From the text: as §1

Molecule | degradation of KRas, influence of administration time ([1]; 10 and 20 μg/mL, 1, 2, 6, 12, 24 hours, cell line not restated (FIG. 12)) | degradation of KRas protein, concentration-dependency (western blot) ([1]; HT29, 24 hours) | degradation effect on KRas at 10 ug/mL and 20 ug/mL ([1]; HT29, FIG. 11, 24 hours) | detection in serum after administration (western blot) ([2]; 50 mg/kg intraperitoneal once, 3 days after administration) | half-life period in vivo ([2]; inferred from serum detection 3 days after 50 mg/kg) | inhibition of activation of EGFR downstream signal pathway KRas/Raf/ERK/c-myc (western blot) [3] | inhibition of cell growth (CCK-8) (HT29 (KRas wt)) | inhibition of cell growth (CCK-8) (HCT116 (KRas G13D))
TKD: fusion protein: tumour-cell-penetrating peptide BR2, anti-KRas nanobody VHH and lysosome recognition peptide CTM; SEQ ID NO.4 (protein) RAGLQFPVGRLLRRLLRDVQLQESGGGLVQAGGSLRLSCVASGRTFSTYPTGWFRQAPGKEREFVARINLSGGITNYADSVKGRFTISRDNAKNTVYLQMNSLKPEDTAVYYCGGGSTTWAGGIPTNFDYWGQGTQVTVSSGRKFERQKILDQRFFE | could rapidly degrade KRas, and the degradation was time-dependent within a certain range | could cause degradation of expression levels of the wild-type and mutant-type KRas proteins in the colorectal cancer cells, and the degradation degree was increased with the increase of the concentration | the degradation effect on KRas was obvious | could still be detected | long | could significantly inhibit the activation of the EGFR downstream signal pathway KRas/Raf/ERK/c-myc | could significantly inhibit growth | could significantly inhibit growth
TKDm: control molecule of TKD with mutated CTM fragment (CTMmt) which could not be recognized by a lysosome; SEQ ID NO.5 (protein) RAGLQFPVGRLLRRLLRDVQLQESGGGLVQAGGSLRLSCVASGRTFSTYPTGWFRQAPGKEREFVARINLSGGITNYADSVKGRFTISRDNAKNTVYLQMNSLKPEDTAVYYCGGGSTTWAGGIPTNFDYWGQGTQVTVSSGRKFERAKILDARFFE | – | could not play a similar role | – | – | – | – | could not achieve the same effect | could not achieve the same effect
